# Measured values from the supplement of paper PMC10126150.
# ± gives the standard deviation of the averaged measurements.
# Test system: ATP
# Test: switch fluorescence ratio, 500 uM ATP over buffer (Cy3 cluster intensity, sum of 5 cycles each) (fold (ratio)); higher = stronger signal-on switching upon ATP binding; sequences stand for … in TCGTCGGCAGCGTCAGATGTGTATAAGAGACAGTTTTTTTTTTTTTTTTTTTTTTTTT…TC
# Conditions: aptamer strand: ATP DNA aptamer (quencher-CACCTGGGGGAGTATTGCGGAGGAAGG + anchor), 100 nM annealed; ATP concentration: 500 uM
# Procedure, shortened: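 Imaging in selection buffer was followed by imaging after 15 min with 500 uM ATP at 22 °C, for Cy3-labelled switching-strand clusters annealed to 100 nM quencher-labelled ATP aptamer on a modified Illumina MiSeq flow-cell. Five of these buffer/ATP cycles ran, separated by NaOH stripping and re-annealing. The fluorescence ratio per cluster is summed target-cycle over summed buffer-cycle Cy3 intensity, averaged per switch-domain sequence; clusters outside 100-1000 RFU were removed.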
# 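Also: ATP exposure 15 min at 22 °C before imaging.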
row,Sequence,switch fluorescence ratio
1,AATGCTGACA,1 ± 0.016
2,AATGCTGGTG,1.075 ± 0.01
3,AATGCTGGTT,1.01 ± 0.015
4,AATGGACGTG,1 ± 0.028
5,AATGGAGATG,1 ± 0.041
6,AATGGAGTGG,0.997 ± 0.028
7,AATGGCAATG,1.05 ± 0.026
8,AATGGCAATT,0.995 ± 0.033
9,AATGGCAGGG,0.988 ± 0.039
10,AATGGCATTA,0.984 ± 0.03
11,AATGGCATTC,1.03 ± 0.038
12,AATGGGAATG,1.013 ± 0.0052
13,AATGGGCCGG,1.013 ± 0.0076
14,AATGGGCGAG,1.08 ± 0.18
15,AATGGGCTGA,0.971 ± 0.015
16,AATGGGGCAA,1.058 ± 0.0077
17,AATGGGGGAA,0.9881 ± 0.0087
18,AATGGGGGGT,1.02 ± 0.053
19,AATGGGGGTG,1.02 ± 0.032
20,AATGGGTAGT,0.991 ± 0.042
21,AATGGGTCAT,1.004 ± 0.0013
22,AATGGTATGT,1.032 ± 0.0088
23,AATGGTTGGG,0.9989 ± 0.0078

row,Sequence,switch fluorescence ratio
1,AATGTAAATA,1.01 ± 0.018
2,AATGTACCCA,1.09 ± 0.017
3,AATGTAGACG,0.997 ± 0.13
4,AATGTATCGT,0.978 ± 0.021
5,AATGTATGTT,1.032 ± 0.0074
6,AATGTCGAAA,0.998 ± 0.018
7,AATGTCGACC,1.026 ± 0.0022
8,AATGTGCCTT,1.056 ± 0.0057
9,AATGTGGATA,0.984 ± 0.028
10,AATGTTAAAT,0.979 ± 0.02
11,AATGTTCAAA,0.995 ± 0.023
12,AATGTTTTGA,0.995 ± 0.016
13,AATGTTTTGG,0.9952 ± 0.0081
14,AATTAAAAAG,0.975 ± 0.023
15,AATTAAACGA,1.036 ± 0.0068
16,AATTAAGGAT,0.975 ± 0.032
17,AATTAAGGTT,1.04 ± 0.03
18,AATTACGATT,1.04 ± 0.034
19,AATTAGATTC,0.994 ± 0.055
20,AATTAGGGTA,1.03 ± 0.012
21,AATTAGGTTG,0.967 ± 0.025
22,AATTATACCC,1.03 ± 0.029
23,AATTATTTT,0.993 ± 0.02

row,Sequence,switch fluorescence ratio
1,AATTCAAAAA,1.02 ± 0.021
2,AATTCACGTT,1.17 ± 0.19
3,AATTCCGATG,1.29 ± 0.076
4,AATTCCGGGT,1.02 ± 0.031
5,AATTCCTGGT,1.04 ± 0.023
6,AATTCGACGT,0.9963 ± 0.0091
7,AATTCGCAGT,1.17 ± 0.23
8,AATTCGTCG,0.9557 ± 0.0045
9,AATTCGTGCG,0.9872 ± 0.0086
10,AATTCGTTAC,1.63 ± 0.76
11,AATTCGTTGG,0.993 ± 0.026
12,AATTCTTGGG,0.981 ± 0.018
13,AATTGAAACA,0.9731 ± 0.0068
14,AATTGAAGGC,0.972 ± 0.022
15,AATTGACCGA,1.05 ± 0.013
16,AATTGATAAA,0.984 ± 0.042
17,AATTGATGTT,0.972 ± 0.025
18,AATTGATTGG,0.983 ± 0.032
19,AATTGCGGCC,0.979 ± 0.045
20,AATTGCTACC,1.07 ± 0.013
21,AATTGGAAGG,0.993 ± 0.012
22,AATTGGACTA,0.976 ± 0.063
23,AATTGGAGGA,0.996 ± 0.033

row,Sequence,switch fluorescence ratio
1,AATTGGATCG,1.016 ± 0.0018
2,AATTGGGCAG,0.9971 ± 0.0038
3,AATTGGGCTA,0.9994 ± 0.0056
4,AATTGGGCTT,1.02 ± 0.043
5,AATTGGGTAA,1.025 ± 0.0083
6,AATTGGGTTT,0.99 ± 0.023
7,AATTGGTTAG,0.984 ± 0.054
8,AATTGTATAG,0.9913 ± 0.0062
9,AATTGTGCCT,1.08 ± 0.055
10,AATTGTGGAG,0.966 ± 0.023
11,AATTGTGTTG,0.98 ± 0.031
12,AATTGTTGGT,1.01 ± 0.036
13,AATTTAGAGT,1 ± 0.012
14,AATTTCACGG,1.03 ± 0.066
15,AATTTCCGAG,1.17 ± 0.037
16,AATTTCCTTT,0.988 ± 0.036
17,AATTTCGGGA,1.01 ± 0.044
18,AATTTCGGGT,0.9877 ± 0.0096
19,AATTTGAAAG,1.017 ± 0.01
20,AATTTGAGGA,0.972 ± 0.02
21,AATTTGAGTG,0.977 ± 0.032
22,AATTTGCGAC,1.05 ± 0.011
23,AATTTGGACT,1.03 ± 0.027

row,Sequence,switch fluorescence ratio
1,AATTTGGCCC,1.01 ± 0.031
2,AATTTGGGTT,1.04 ± 0.053
3,AATTTGGTAT,1.04 ± 0.011
4,AATTTGTATT,0.997 ± 0.011
5,AATTTGTTAG,0.985 ± 0.018
6,AATTTGTTCT,0.999 ± 0.025
7,AATTTGTTTC,0.972 ± 0.021
8,AATTTTAATG,0.997 ± 0.022
9,AATTTTATCT,0.99 ± 0.014
10,AATTTTGTTA,0.976 ± 0.043
11,AATTTTTAGA,0.987 ± 0.034
12,AATTTTTGTA,0.984 ± 0.018
13,AATTTTTTCA,0.99 ± 0.018
14,AATTTTTTCG,0.992 ± 0.025
15,ACAAACTGGT,1 ± 0.019
16,ACAAAGAGTC,0.9932 ± 0.0083
17,ACAAAGGTGT,1.29 ± 0.015
18,ACAACGCTTG,1.01 ± 0.032
19,ACAAGATGGG,1.09 ± 0.082
20,ACAAGGGGGA,1.02 ± 0.013
21,ACAAGGTGAT,1.15 ± 0.024
22,ACAAGTATCA,0.9853 ± 0.0074
23,ACAATCCGGG,1.01 ± 0.032

row,Sequence,switch fluorescence ratio
1,ACAATCGGAA,1.025 ± 0.0014
2,ACAATTGCTA,0.994 ± 0.03
3,ACACAAGGTC,1.03 ± 0.041
4,ACACAATCAT,1.02 ± 0.011
5,ACACATGTAT,1 ± 0.045
6,ACACCATTAA,1.02 ± 0.03
7,ACACCCGGCC,1.28 ± 0.068
8,ACACCCTTAT,1.127 ± 0.011
9,ACACCGGGGG,1.13 ± 0.17
10,ACACGGGGGG,1.04 ± 0.022
11,ACACGGTGAT,1.056 ± 0.0056
12,ACACGGTGGG,0.975 ± 0.054
13,ACACGTGCTA,1.01 ± 0.024
14,ACACGTTACA,1.62 ± 0.082
15,ACACTCGTCT,1.009 ± 0.0051
16,ACACTGCCGG,1.04 ± 0.026
17,ACACTGTATC,1.21 ± 0.038
18,ACACTTGAAT,0.996 ± 0.027
19,ACACTTGCGC,1.02 ± 0.038
20,ACACTTGTTG,0.963 ± 0.028
21,ACAGAAGATG,1.003 ± 0.0087
22,ACAGAAGCTT,1.03 ± 0.015
23,ACAGAAGTCT,1.03 ± 0.096

row,Sequence,switch fluorescence ratio
1,ACAGCGGGGT,1 ± 0.021
2,ACAGGACGGA,1.03 ± 0.013
3,ACAGGAGAAA,1.01 ± 0.019
4,ACAGGAGGAG,0.9859 ± 3.2e-05
5,ACAGGATTGG,1.01 ± 0.017
6,ACAGGCGTCA,1.02 ± 0.024
7,ACAGGGAAAG,1.04 ± 0.034
8,ACAGGGCCGT,1.03 ± 0.033
9,ACAGGGTAGC,1 ± 0.015
10,ACAGGGTTTC,0.985 ± 0.015
11,ACAGGTAAA,1.02 ± 0.028
12,ACAGGTAGCT,1.06 ± 0.056
13,ACAGGTAGGT,1 ± 0.055
14,ACAGGTTGGA,1.03 ± 0.023
15,ACAGTAGTTA,1.046 ± 0.0065
16,ACAGTGTGGG,1.05 ± 0.018
17,ACAGTTAGGT,0.992 ± 0.034
18,ACAGTTCTAC,1.03 ± 0.031
19,ACAGTTGGGC,0.9946 ± 0.004
